From CN108948205A (BEIJING JINDAI BIOTECHNOLOGY CO LTD, dated 2018)

What was measured:
[1] = biological target: T1, IDH1 R132H突变抗原多肽 (编号 U6184CB080-D); assay: SPR, Biacore 8k, peptide on CM5 chip; reference H09
T1 sequence (peptide): KPIIIGHHAYGDQYC

[2] = biological target: T2, IDH1 R132H (mutant IDH1 in glioma tissue sections) (UniProt O75874 2-414); assay: immunohistochemistry on glioma paraffin sections
T2 construct: Endogenous protein in patients' glioma paraffin sections; also called IDH1突变; IDH1 R132H突变

[3] = biological target: T3, IDH1野生型 (wild-type IDH1 in glioma tissue sections) (UniProt O75874 2-414); assay: immunohistochemistry on glioma paraffin sections
T3 construct: Endogenous protein in patients' glioma paraffin sections; also called IDH1 R132H焦磷酸测序野生型样本; 不携带IDH1 R132H突变的胶质瘤样本
T3 sequence (O75874 2-414 limits assumed): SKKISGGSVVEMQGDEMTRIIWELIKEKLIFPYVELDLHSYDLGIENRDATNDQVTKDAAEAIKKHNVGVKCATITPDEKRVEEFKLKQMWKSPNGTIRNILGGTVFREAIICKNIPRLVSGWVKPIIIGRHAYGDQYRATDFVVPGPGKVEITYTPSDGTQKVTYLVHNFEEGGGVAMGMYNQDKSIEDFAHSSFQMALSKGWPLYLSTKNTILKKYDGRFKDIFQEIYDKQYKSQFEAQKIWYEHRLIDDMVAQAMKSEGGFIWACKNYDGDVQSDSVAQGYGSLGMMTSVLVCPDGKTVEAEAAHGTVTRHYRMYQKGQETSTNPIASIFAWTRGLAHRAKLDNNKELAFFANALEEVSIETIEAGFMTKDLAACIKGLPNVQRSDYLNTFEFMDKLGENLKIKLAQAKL

T2 sequence (O75874 2-414 R132H limits assumed): as the sequence (O75874 2-414 limits assumed) above, with R131H counted along it

B1: 10G5-1单克隆抗体 (anti-IDH1 R132H monoclonal antibody secreted by hybridoma 10G5-1, CGMCC No.15783) (antibody, V domains shown)
VH: QVQLQQPGTELVKPGASVHLSCKASGYTFTTYWMHWVKQRPGQGLEWIGDINPSNGETYYNEKFRNKATLTVDKSSRTAYMHLSSLSSEDSAVYYCARGFKDYWGQGTTLTVSS
VL: DVLMTQTPLSLPVSLGDQASISCRSSQTILYSDGVTYLEWYLQKPGQSPKLLIYKVSSRFSGVPDRFSGSGSGTDFTLKISRVVAEDLGIYYCFQGSHVPFTFGSGTKLEIK
notes: Mouse (BALB/c) hybridoma antibody purified on protein A; also called 10G5-1抗体; 1OG5-1抗体
In the case of B1, the fold lower 亲和力平衡常数 (KD) against H09 [1] is reported as 10 fold, the binding result [2] is reported as “binds” and the binding result [3] is reported as “no binding”.
